The values below come from paper PMC10954734, “Structure of antiviral drug bulevirtide bound to hepatitis B and D virus receptor protein NTCP” (Nature Communications, 2024).

This assay addresses T1, complex of detergent-solubilized, biotinylated NTCP and BLV (Homo sapiens NTCP; bulevirtide from …).
T1 construct: also called NTCP-BLV complex; source: BLV: provided peptide; not shown: Avi-tag, C-terminal, kept; eYFP, C-terminal, cleaved; rho-1D4, C-terminal, cleaved
Kind of assay: ELISA; multipoint ELISA at 4 C; 40 nM biotinylated NTCP immobilised on a neutravidin-coated plate in the presence of BLV, serial dilutions of purified Fab for 20 min, detection with HRP-conjugated protein L; EC50 from a sigmoidal dose-response fit; apparent. The settings on record: both partners purified. (An ELISA detects its analyte on a solid surface through an enzyme-linked reagent.)

B1: Fab3 (Fab, V domains shown)
VH: EVQLVESGGGLVQPGGSLRLSCAASGFNVSSSYIHWVRQAPGKGLEWVASISPYYSYTSYADSVKGRFTISADTSKNTAYLQMNSLRAEDTAVYYCARYQYDYYYSYYAGLDYWGQGTLVTVSS
VL: DIQMTQSPSSLSASVGDRVTITCRASQSVSSAVAWYQQKPGKAPKLLIYSASSLYSGVPSRFSGSRSGTDFTLTISSLQPEDFATYYCQQYRYSLITFGQGTKVEIK
notes: also called Fab specific to the NTCP-BLV complex
For the molecule B1, the Kd worked out at 8 nM.
